According to paper PMC3914025 (Nature, 2013):

Molecular target: the molecule itself
Experiment: crystal structure

B1: NapA from Thermus thermophilus, triple cysteine mutant (Met20, Val166, Val326 to cysteine) (natural protein)
chain: MHGAEHLLEIFYLLLAAQVCAFIFKRLNQPVVIGEVLAGVLVGPALLGLVHEGEILEFLAELGAVFLLFMVGLETRLKDILAVGKEAFLVAVLGVALPFLGGYLYGLEIGFETLPALFLGTALVATSVGITARVLQELGVLSRPYSRIILGAAVIDDVLGLIVLACVNGVAETGQVEVGAITRLIVLSVVFVGLAVFLSTLIARLPLERLPVGSPLGFALALGVGMAALAASIGLAPIVGAFLGGMLLSEVREKYRLEEPIFAIESFLAPIFFAMVGVRLELSALASPVVLVAGTVVTVIAILGKVLGGFLGALTQGVRSALTVGCGMAPRGEVGLIVAALGLKAGAVNEEEYAIVLFMVVFTTLFAPFALKPLIAWTERERAAKEGSENLYFQ
binding result: binds
